The record followed here is PMC7367873, “Dissecting the sequence determinants for dephosphorylation by the catalytic subunits of phosphatases PP1 and PP2A” (Nature Communications, 2020).

The test system of one assay is GFP-14-3-3β. The assay is described as follows: GFP-14-3-3β co-IP with LC-MS/MS, untreated GFP-14-3-3β versus GFP control (14-3-3 interactome). The class given is binding, human. The conditions noted are these: log2 difference; pairwise comparison untreated vs GFP, label-free quantification, 3 replicates each.
Assay [1] has as its system GFP-14-3-3β and its binding proteins. The assay is described as follows: GFP-14-3-3β co-IP with LC-MS/MS label-free quantification, untreated versus PP1c-treated. Further details: species or system human. The conditions noted are these: log2 difference; pairwise comparison PP1 vs untreated, label-free quantification, 3 replicates each.

B1: EIF5B (protein, UniProt O60841 1-1220, looked up)
Eukaryotic translation …: MGKKQKNKSEDSTKDDIDLDALAAEIEGAGAAKEQEPQKSKGKKKKEKKKQDFDEDDILKELEELSLEAQGIKADRETVAVKPTENNEEEFTSKDKKKKGQKGKKQSFDDNDSEELEDKDSKSKKTAKPKVEMYSGSDDDDDFNKLPKKAKGKAQKSNKKWDGSEEDEDNSKKIKERSRINSSGESGDESDEFLQSRKGQKKNQKNKPGPNIESGNEDDDASFKIKTVAQKKAEKKERERKKRDEEKAKLRKLKEKEELETGKKDQSKQKESQRKFEEETVKSKVTVDTGVIPASEEKAETPTAAEDDNEGDKKKKDKKKKKGEKEEKEKEKKKGPSKATVKAMQEALAKLKEEEERQKREEEERIKRLEELEAKRKEEERLEQEKRERKKQKEKERKERLKKEGKLLTKSQREARARAEATLKLLQAQGVEVPSKDSLPKKRPIYEDKKRKKIPQQLESKEVSESMELCAAVEVMEQGVPEKEETPPPVEPEEEEDTEDAGLDDWEAMASDEETEKVEGNKVHIEVKENPEEEEEEEEEEEEDEESEEEEEEEGESEGSEGDEEDEKVSDEKDSGKTLDKKPSKEMSSDSEYDSDDDRTKEERAYDKAKRRIEKRRLEHSKNVNTEKLRAPIICVLGHVDTGKTKILDKLRHTHVQDGEAGGITQQIGATNVPLEAINEQTKMIKNFDRENVRIPGMLIIDTPGHESFSNLRNRGSSLCDIAILVVDIMHGLEPQTIESINLLKSKKCPFIVALNKIDRLYDWKKSPDSDVAATLKKQKKNTKDEFEERAKAIIVEFAQQGLNAALFYENKDPRTFVSLVPTSAHTGDGMGSLIYLLVELTQTMLSKRLAHCEELRAQVMEVKALPGMGTTIDVILINGRLKEGDTIIVPGVEGPIVTQIRGLLLPPPMKELRVKNQYEKHKEVEAAQGVKILGKDLEKTLAGLPLLVAYKEDEIPVLKDELIHELKQTLNAIKLEEKGVYVQASTLGSLEALLEFLKTSEVPYAGINIGPVHKKDVMKASVMLEHDPQYAVILAFDVRIERDAQEMADSLGVRIFSAEIIYHLFDAFTKYRQDYKKQKQEEFKHIAVFPCKIKILPQYIFNSRDPIVMGVTVEAGQVKQGTPMCVPSKNFVDIGIVTSIEINHKQVDVAKKGQEVCVKIEPIPGESPKMFGRHFEATDILVSKISRQSIDALKDWFRDEMQKSDWQLIVELKKVFEII
On to B1, for which, in the assay on GFP-14-3-3β, the “Difference (log2), untreated vs GFP” value stood at 0.212. The “Difference (log2), PP1 vs untreated” value in assay [1] is on record as 1.436.

B2: DHX36 (protein, UniProt Q9H2U1 1-1008, looked up)
ATP-dependent DNA/RNA …: MSYDYHQNWGRDGGPRSSGGGYGGGPAGGHGGNRGSGGGGGGGGGGRGGRGRHPGHLKGREIGMWYAKKQGQKNKEAERQERAVVHMDERREEQIVQLLNSVQAKNDKESEAQISWFAPEDHGYGTEVSTKNTPCSENKLDIQEKKLINQEKKMFRIRNRSYIDRDSEYLLQENEPDGTLDQKLLEDLQKKKNDLRYIEMQHFREKLPSYGMQKELVNLIDNHQVTVISGETGCGKTTQVTQFILDNYIERGKGSACRIVCTQPRRISAISVAERVAAERAESCGSGNSTGYQIRLQSRLPRKQGSILYCTTGIILQWLQSDPYLSSVSHIVLDEIHERNLQSDVLMTVVKDLLNFRSDLKVILMSATLNAEKFSEYFGNCPMIHIPGFTFPVVEYLLEDVIEKIRYVPEQKEHRSQFKRGFMQGHVNRQEKEEKEAIYKERWPDYVRELRRRYSASTVDVIEMMEDDKVDLNLIVALIRYIVLEEEDGAILVFLPGWDNISTLHDLLMSQVMFKSDKFLIIPLHSLMPTVNQTQVFKRTPPGVRKIVIATNIAETSITIDDVVYVIDGGKIKETHFDTQNNISTMSAEWVSKANAKQRKGRAGRVQPGHCYHLYNGLRASLLDDYQLPEILRTPLEELCLQIKILRLGGIAYFLSRLMDPPSNEAVLLSIRHLMELNALDKQEELTPLGVHLARLPVEPHIGKMILFGALFCCLDPVLTIAASLSFKDPFVIPLGKEKIADARRKELAKDTRSDHLTVVNAFEGWEEARRRGFRYEKDYCWEYFLSSNTLQMLHNMKGQFAEHLLGAGFVSSRNPKDPESNINSDNEKIIKAVICAGLYPKVAKIRLNLGKKRKMVKVYTKTDGLVAVHPKSVNVEQTDFHYNWLIYHLKMRTSSIYLYDCTEVSPYCLLFFGGDISIQKDNDQETIAVDEWIVFQSPARIAHLVKELRKELDILLQEKIESPHPVDWNDTKSRDCAVLSAIIDLIKTQEKATPRNFPPRFQDGYYS
For B2, the “Difference (log2), untreated vs GFP” value in the assay on GFP-14-3-3β stood at 0.06686. Also, the “Difference (log2), PP1 vs untreated” value in assay [1] came to 1.434.
